Test results: paper PMC6826200

B1: wild-type FICD (amino acid residues 104-445) [human] / itself (parent)
chain: LEARAALNQALEMKRQGKREKAQKLFMHALKMDPDFVDALTEFGIFSEEDKDIIQADYLYTRALTISPYHEKALVNRDRTLPLVEEIDQRYFSIIDSKVKKVMSIPKGNSALRRVMEETYYHHIYHTVAIEGNTLTLSEIRHILETRYAVPGKSLEEQNEVIGMHAAMKYINTTLVSRIGSVTISDVLEIHRRVLGYVDPVEAGRFRTTQVLVGHHIPPHPQDVEKQMQEFVQWLNSEEAMNLHPVEFAALAHYKLVYIHPFIDGNGRTSRLLMNLILMQAGYPPITIRKEQRSDYYHVLEAANEGDVRPFIRFIAKCTETTLDTLLFATTEYSVALPEAQP

Variants of: B1
Test: size-exclusion chromatography (peak elution time vs protein concentration, monomer-dimer association fit)
Settings: with itself; non-oxidised protein; parent: 55 nM

| Kd | Variant |
| --- | --- |
| 831 nM | chain 1 A149C C318S |
